The test system of data set [1] is HeLa Kyoto. The data set is described as follows: melting temperature (median over replicates), in situ; higher = more thermally stable.
The test system of data set [2] is HeLa Kyoto. The data set is described as follows: thermal stability score vs G1/S (z-score of summed log2 fold changes over temperatures); higher = more thermally stable than in G1/S.
Data set [3] relates to HeLa Kyoto. Description: solubility change mitosis vs G1/S (difference of NP-40 vs SDS log2 ratios) (log2 ratio difference); higher = more soluble in mitosis.
Data set [4] deals with HeLa Kyoto. Description: solubility in G1/S (NP-40 vs SDS abundance) (log2 ratio); higher = more soluble. The note with it: cell cycle stage: G1/S.
[5] abbreviates: cell cycle stage: early G1 (4.5 h after nocodazole release).

We go through five sequences from the supplement of paper PMC5998384.
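Wherever melting temperature (median over replicates), in situ is given: HeLa Kyoto cells synchronized by double thymidine or nocodazole block, proteins quantified by TMT10plex mass spectrometry, three independent biological replicates.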
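Wherever solubility change mitosis vs G1/S (difference of NP-40 vs SDS log2 ratios) is given: synchronized HeLa Kyoto cells (double thymidine block for G1/S, nocodazole release for mitosis), protein amounts in NP-40 versus SDS lysates quantified by mass spectrometry, three biological replicates.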
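Wherever solubility in G1/S (NP-40 vs SDS abundance) is given: HeLa Kyoto cells arrested at G1/S by double thymidine block, proteins quantified by TMT10plex mass spectrometry in mild NP-40 versus SDS extracts, three biological replicates.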
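Wherever thermal stability score vs G1/S (z-score of summed log2 fold changes over temperatures) is given: synchronized HeLa Kyoto cells, proteins quantified by TMT10plex mass spectrometry, three biological replicates, mitosis taken 0.5 h after nocodazole release, G1/S directly after double thymidine block.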

With “MCGIFAYMNYRVPRTRKEIFETLIKGLQRLEYRGYDSAGVAIDGNNHEVKERHIQLVKKRGKVKALDEELYKQDSMDLKVEFETHFGIAHTRWATHGVPSAVNSHPQRSDKGNEFVVIHNGIITNYKDLRKFLESKGYEFESETDTETIAKLIKYVFDNRETEDITFSTLVERVIQQLEGAFALVFKSVHYPGEAVATRRGSPLLIGVRSKYKLSTEQIPILYRTCTLENVKNICKTRMKRLDSSACLHAVGDKAVEFFFASDASAIIEHTNRVIFLEDDDIAAVADGKLSIHRVKRSASDDPSRAIQTLQMELQQIMKGNFSAFMQKEIFEQPESVFNTMRGRVNFETNTVLLGGLKDHLKEIRRCRRLIVIGCGTSYHAAVATRQVLEELTELPVMVELASDFLDRNTPVFRDDVCFFISQSGETADTLLALRYCKDRGALTVGVTNTVGSSISRETDCGVHINAGPEIGVASTKAYTSQFISLVMFGLMMSEDRISLQNRRQEIIRGLRSLPELIKEVLSLEEKIHDLALELYTQRSLLVMGRGYNYATCLEGALKIKEITYMHSEGILAGELKHGPLALIDKQMPVIMVIMKDPCFAKCQNALQQVTARQGRPIILCSKDDTESSKFAYKTIELPHTVDCLQGILSVIPLQLLSFHLAVLRGYDVDFPRNLAKSVTVE [GFPT2]”, the melting temperature was determined as 54.3 °C with HeLa Kyoto [1] (cell cycle stage: G1/S) and 53.9 °C in the data set with HeLa Kyoto [1] (cell cycle stage: mitosis). The thermal stability score is -1.27 in the data set on HeLa Kyoto [2] (setting [5]) and 0.586 in the data set on HeLa Kyoto [2] (cell cycle stage: mitosis). Further, the “solubility change mitosis (log2)” value in the data set with HeLa Kyoto [3] is -0.124. Moreover, the “solubility in G1/S (log2)” value in the data set with HeLa Kyoto [4] is -0.201.
Take “MCGRTSCHLPRDVLTRACAYQDRRGQQRLPEWRDPDKYCPSYNKSPQSNSPVLLSRLHFEKDADSSERIIAPMRWGLVPSWFKESDPSKLQFNTTNCRSDTVMEKRSFKVPLGKGRRCVVLADGFYEWQRCQGTNQRQPYFIYFPQIKTEKSGSIGAADSPENWEKVWDNWRLLTMAGIFDCWEPPEGGDVLYSYTIITVDSCKGLSDIHHRMPAILDGEEAVSKWLDFGEVSTQEALKLIHPTENITFHAVSSVVNNSRNNTPECLAPVDLVVKKELRASGSSQRMLQWLATKSPKKEDSKTPQKEESDVPQWSSQFLQKSPLPTKRGTAGLLEQWLKREKEEEPVAKRPYSQ [HMCES]”: the results for the melting temperature in the data set with HeLa Kyoto [1] (cell cycle stage: G1/S) and with HeLa Kyoto [1] (cell cycle stage: mitosis) were 48.6 °C and 48.4 °C, respectively. Further, the thermal stability score in the data set with HeLa Kyoto [2] (setting [5]) came out at 1.11; in the data set with HeLa Kyoto [2] (cell cycle stage: mitosis), 1.51. Moreover, the “solubility change mitosis (log2)” value in the data set on HeLa Kyoto [3] was -0.0383. Also, the “solubility in G1/S (log2)” value in the data set on HeLa Kyoto [4] is 0.0685.
Consider “MCGSALAFFTAAFVCLQNDRRGPASFLWAAWVFSLVLGLGQGEDNRCASSNAASCARCLALGPECGWCVQEDFISGGSRSERCDIVSNLISKGCSVDSIEYPSVHVIIPTENEINTQVTPGEVSIQLRPGAEANFMLKVHPLKKYPVDLYYLVDVSASMHNNIEKLNSVGNDLSRKMAFFSRDFRLGFGSYVDKTVSPYISIHPERIHNQCSDYNLDCMPPHGYIHVLSLTENITEFEKAVHRQKISGNIDTPEGGFDAMLQAAVCESHIGWRKEAKRLLLVMTDQTSHLALDSKLAGIVVPNDGNCHLKNNVYVKSTTMEHPSLGQLSEKLIDNNINVIFAVQGKQFHWYKDLLPLLPGTIAGEIESKAANLNNLVVEAYQKLISEVKVQVENQVQGIYFNITAICPDGSRKPGMEGCRNVTSNDEVLFNVTVTMKKCDVTGGKNYAIIKPIGFNETAKIHIHRNCSCQCEDNRGPKGKCVDETFLDSKCFQCDENKCHFDEDQFSSESCKSHKDQPVCSGRGVCVCGKCSCHKIKLGKVYGKYCEKDDFSCPYHHGNLCAGHGECEAGRCQCFSGWEGDRCQCPSAAAQHCVNSKGQVCSGRGTCVCGRCECTDPRSIGRFCEHCPTCYTACKENWNCMQCLHPHNLSQAILDQCKTSCALMEQQHYVDQTSECFSSPSYLRIFFIIFIVTFLIGLLKVLIIRQVILQWNSNKIKSSSDYRVSASKKDKLILQSVCTRAVTYRREKPEEIKMDISKLNAHETFRCNF [ITGB8]”, for which the melting temperature in the data set on HeLa Kyoto [1] (cell cycle stage: G1/S) was found to be 53.9 °C; in the data set on HeLa Kyoto [1] (cell cycle stage: mitosis) it was 53.8 °C. For the same sequence, the thermal stability score with HeLa Kyoto [2] (setting [5]) is -0.935; with HeLa Kyoto [2] (cell cycle stage: mitosis), -1.88. In the data set on HeLa Kyoto [3], the “solubility change mitosis (log2)” value was -0.0048. For the same sequence, the “solubility in G1/S (log2)” value in the data set with HeLa Kyoto [4] is -0.0596.
In the case of “MCSLASGATGGRGAVENEEDLPELSDSGDEAAWEDEDDADLPHGKQQTPCLFCNRLFTSAEETFSHCKSEHQFNIDSMVHKHGLEFYGYIKLINFIRLKNPTVEYMNSIYNPVPWEKEEYLKPVLEDDLLLQFDVEDLYEPVSVPFSYPNGLSENTSVVEKLKHMEARALSAEAALARAREDLQKMKQFAQDFVMHTDVRTCSSSTSVIADLQEDEDGVYFSSYGHYGIHEEMLKDKIRTESYRDFIYQNPHIFKDKVVLDVGCGTGILSMFAAKAGAKKVLGVDQSEILYQAMDIIRLNKLEDTITLIKGKIEEVHLPVEKVDVIISEWMGYFLLFESMLDSVLYAKNKYLAKGGSVYPDICTISLVAVSDVNKHADRIAFWDDVYGFKMSCMKKAVIPEAVVEVLDPKTLISEPCGIKHIDCHTTSISDLEFSSDFTLKITRTSMCTAIAGYFDIYFEKNCHNRVVFSTGPQSTKTHWKQTVFLLEKPFSVKAGEALKGKVTVHKNKKDPRSLTVTLTLNNSTQTYGLQ [PRMT3]”, the figures for the melting temperature in the data set with HeLa Kyoto [1] (cell cycle stage: G1/S) and in the data set on HeLa Kyoto [1] (cell cycle stage: mitosis) were 50.9 °C and 51 °C, respectively. Moreover, the thermal stability score was 0.9 with HeLa Kyoto [2] (setting [5]) and 1.13 in the data set on HeLa Kyoto [2] (cell cycle stage: mitosis). Further, the “solubility change mitosis (log2)” value with HeLa Kyoto [3] is -0.212. The “solubility in G1/S (log2)” value with HeLa Kyoto [4] was -0.146.
In the case of “MDALEDYVWPRATSELILLPVTGLECVGDRLLAGEGPDVLVYSLDFGGHLRMIKRVQNLLGHYLIHGFRVRPEPNGDLDLEAMVAVFGSKGLRVVKISWGQGHFWELWRSGLWNMSDWIWDARWLEGNIALALGHNSVVLYDPVVGCILQEVPCTDRCTLSSACLIGDAWKELTIVAGAVSNQLLVWYPATALADNKPVAPDRRISGHVGIIFSMSYLESKGLLATASEDRSVRIWKVGDLRVPGGRVQNIGHCFGHSARVWQVKLLENYLISAGEDCVCLVWSHEGEILQAFRGHQGRGIRAIAAHERQAWVITGGDDSGIRLWHLVGRGYRGLGVSALCFKSRSRPGTLKAVTLAGSWRLLAVTDTGALYLYDVEVKCWEQLLEDKHFQSYCLLEAAPGPEGFGLCAMANGEGRVKVVPINTPTAAVDQTLFPGKVHSLSWALRGYEELLLLASGPGGVVACLEISAAPSGKAIFVKERCRYLLPPSKQRWHTCSAFLPPGDFLVCGDRRGSVLLFPSRPGLLKDPGVGGKARAGAGAPVVGSGSSGGGNAFTGLGPVSTLPSLHGKQGVTSVTCHGGYVYTTGRDGAYYQLFVRDGQLQPVLRQKSCRGMNWLAGLRIVPDGSMVILGFHANEFVVWNPRSHEKLHIVNCGGGHRSWAFSDTEAAMAFAYLKDGDVMLYRALGGCTRPHVILREGLHGREITCVKRVGTITLGPEYGVPSFMQPDDLEPGSEGPDLTDIVITCSEDTTVCVLALPTTTGSAHALTAVCNHISSVRAVAVWGIGTPGGPQDPQPGLTAHVVSAGGRAEMHCFSIMVTPDPSTPSRLACHVMHLSSHRLDEYWDRQRNRHRMVKVDPETRYMSLAVCELDQPGLGPLVAAACSDGAVRLFLLQDSGRILQLLAETFHHKRCVLKVHSFTHEAPNQRRRLLLCSAATDGSLAFWDLTTMLDHDSTVLEPPVDPGLPYRLGTPSLTLQAHSCGINSLHTLPTREGHHLVASGSEDGSLHVFVLAVEMLQLEEAVGEAGLVPQLRVLEEYSVPCAHAAHVTGLKILSPSIMVSASIDQRLTFWRLGHGEPTFMNSTVFHVPDVADMDCWPVSPEFGHRCALGGQGLEVYNWYD [WDR6]”, the values for the melting temperature with HeLa Kyoto [1] (cell cycle stage: G1/S) and in the data set with HeLa Kyoto [1] (cell cycle stage: mitosis) were 51.5 °C and 51.6 °C, respectively. For the same sequence, the thermal stability score in the data set on HeLa Kyoto [2] (setting [5]) was -0.588; in the data set with HeLa Kyoto [2] (cell cycle stage: mitosis), 0.0649. The “solubility change mitosis (log2)” value in the data set with HeLa Kyoto [3] was -0.023. In addition, in the data set with HeLa Kyoto [4], the “solubility in G1/S (log2)” value was -0.611.
